Data on one molecule can be found in patent US20260337263 (published 2026).

For the assay, the target named is T1, soluble mesothelin (human, UniProt Q13421).
T1 chain: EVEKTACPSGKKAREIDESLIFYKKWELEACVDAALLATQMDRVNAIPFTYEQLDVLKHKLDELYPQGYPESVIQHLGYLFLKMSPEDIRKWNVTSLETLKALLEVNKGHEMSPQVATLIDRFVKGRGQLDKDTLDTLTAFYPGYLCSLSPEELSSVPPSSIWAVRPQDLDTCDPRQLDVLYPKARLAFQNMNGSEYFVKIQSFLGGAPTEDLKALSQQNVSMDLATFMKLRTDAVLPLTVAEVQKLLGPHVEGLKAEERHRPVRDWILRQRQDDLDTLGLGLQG
The experiment in a line: ELISA. On the technique in general: ELISA stands for enzyme-linked immunosorbent assay.

B1: Gly1-2-H4 (antibody, V domains shown)
VH: QVQLVQSGAEVKKPGSSVKVSCKSSGGTFSSDTINWVRQAPGQGLEWMGWINPNSGGTNYAQKFQGWVTMTRDTSISTAYMELSRLRSDDTAVYYCARESALGGSYPLSFWGQGTLVTVSS
VL: ETTLTQSPGTLSLSPGERATLSCRASQSVSSSYLAWYQQKPGQAPRLLIYGASSRATGIPDRFSGSGSGTDFTLTISRLEPEDSATYYCLQDDSYPLTFGQGTKVEIK
Turning to B1, the binding result was “no binding”.
